The assay has as its target TRAPPIII complex, P46944;P38334;Q03337;P36149;Q03784;Q03630;Q99394. As to the kind of experiment: in vivo anchor-away assay (colocalization of Trs85-mNeonGreen with mitochondrially anchored Rab, fluorescence microscopy). Particulars: parent: est. 0.55; read off a plot.
On to “chimeric construct containing the NBD of Rab11/Ypt31 and the HVD of Rab1/Ypt1, mitochondrially anchored L198A; T199A; N200A; T201A”, for which the other: Mander's Overlap Coefficient was 0.21. With “chimeric construct containing the NBD of Rab11/Ypt31 and the HVD of Rab1/Ypt1, mitochondrially anchored D187A; K188A; N190A” the figure was 0.68; with “chimeric construct containing the NBD of Rab11/Ypt31 and the HVD of Rab1/Ypt1, mitochondrially anchored K184A; K185A; E186A”, 0.58; with “chimeric construct containing the NBD of Rab11/Ypt31 and the HVD of Rab1/Ypt1, mitochondrially anchored V191A; N192A; L193A”, 0.3. With “chimeric construct containing the NBD of Rab11/Ypt31 and the HVD of Rab1/Ypt1, mitochondrially anchored K194A; Q196A; S197A” the figure was 0.28. With “chimeric construct containing the NBD of Rab11/Ypt31 and the HVD of Rab1/Ypt1, mitochondrially anchored T181A; T182A; Q183A” the figure was 0.54.

Values taken from publication PMC8204860.
